Measured values: the Immune Epitope Database (IEDB)

Columns and labels:
HLA-B*57:01 [1] = assay: IEDB peptide-MHC binding, purified MHC/competitive/radioactivity; filed as Kd, often an IC50 or EC50 that approximates it; ≥ and ≤ were set here for values at or beyond the usual limits of such assays
HLA-B*58:01 = assay: as above
HLA-A*02:01 = assay: IEDB peptide-MHC binding, purified MHC/direct/fluorescence; filed as Kd, often an IC50 or EC50 that approximates it; ≥ and ≤ were set here for values at or beyond the usual limits of such assays; conditions: source organism: Giardia lamblia ATCC 50803
HLA-A*03:01 = assay: as above; conditions: source organism: Giardia lamblia ATCC 50803
HLA-A*24:03 = assay: as above; conditions: source organism: Giardia lamblia ATCC 50803
HLA-A*26:01 = assay: as above; conditions: source organism: Giardia lamblia ATCC 50803
HLA-A*29:02 = assay: as above; conditions: source organism: Giardia lamblia ATCC 50803
HLA-B*15:17 = assay: as above; conditions: source organism: Giardia lamblia ATCC 50803
HLA-B*18:01 = assay: as above; conditions: source organism: Giardia lamblia ATCC 50803
HLA-B*27:03 = assay: as above; conditions: source organism: Giardia lamblia ATCC 50803
HLA-B*39:01 = assay: as above; conditions: source organism: Giardia lamblia ATCC 50803
HLA-B*46:01 = assay: as above; conditions: source organism: Giardia lamblia ATCC 50803
HLA-B*51:01 = assay: as above; conditions: source organism: Giardia lamblia ATCC 50803
HLA-B*57:01 [2] = assay: as above; conditions: source organism: Giardia lamblia ATCC 50803
[3] = source organism: Dengue virus 3 Martinique/1243/1999
[4] = source organism: Dengue virus 4 Philippines/H241/1956

KAWMVHRQW
Kd (HLA-B*57:01 [1]; [3]): 0.00127 µM | Kd (HLA-B*58:01; [3]): 0.00108 µM

KTRANDWDF
Kd (HLA-B*57:01 [1]; source organism: Dengue virus 2 Jamaica/1409/1983): 0.0221 µM

LLIQGLKTV
Kd (HLA-A*02:01): 0.002 µM | Kd (HLA-A*03:01): ≥ 20 µM | Kd (HLA-A*24:03): ≥ 20 µM | Kd (HLA-A*26:01): ≥ 20 µM | Kd (HLA-A*29:02): ≥ 20 µM | Kd (HLA-B*15:17): ≥ 20 µM | Kd (HLA-B*18:01): ≥ 20 µM | Kd (HLA-B*27:03): ≥ 20 µM | Kd (HLA-B*39:01): ≥ 20 µM | Kd (HLA-B*46:01): ≥ 20 µM | Kd (HLA-B*51:01): ≥ 20 µM | Kd (HLA-B*57:01 [2]): ≥ 20 µM

LSSRATWAKN
Kd (HLA-B*57:01 [1]; [4]): 1.88 µM | Kd (HLA-B*58:01; [4]): 0.156 µM
